What was measured:
Experiment in all cases: purified protein
[1] = substrate: N[C@@H](Cc1ccc(O)cc1)C(=O)NCCCC=O; format: biochemical, Lathyrus oleraceus; conditions: 1 mM NAD+, 0.15 M Tris-HCl, pH 9.0
[2] = substrate: N[C@@H](Cc1ccccc1)C(=O)NCCCC=O; format: biochemical, Lathyrus oleraceus
[3] = substrate: NCCCC=O; format: biochemical, Lathyrus oleraceus; conditions: 1 mM NAD+, 0.15 M Tris-HCl, pH 9.0
[4] = substrate: O=CCCNC(=O)CCC(=O)O; format: biochemical, Lathyrus oleraceus; conditions: 1 mM NAD+, 0.15 M Tris-HCl, pH 9.0
[5] = substrate: O=CCCNC(=O)CCCC(=O)O; format: biochemical, Lathyrus oleraceus; conditions: 1 mM NAD+, 0.15 M Tris-HCl, pH 9.0
[6] = substrate: NCCC=O; format: biochemical, Lathyrus oleraceus; conditions: 1 mM NAD+, 0.15 M Tris-HCl, pH 9.0
[7] = substrate: O=CCCCNC(=O)CCCC(=O)O; format: biochemical, Lathyrus oleraceus; conditions: 1 mM NAD+, 0.15 M Tris-HCl, pH 9.0
[8] = substrate: O=CCCCNC(=O)CCC(=O)O; format: biochemical, Lathyrus oleraceus; conditions: 1 mM NAD+, 0.15 M Tris-HCl, pH 9.0
[9] = substrate: N[C@@H](Cc1ccccc1)C(=O)NCCC=O; format: biochemical, Zea mays; conditions: 2.5 mM NAD+, 0.1 M sodium pyrophosphate, pH 8.1
[10] = substrate: N[C@@H](Cc1ccc(O)cc1)C(=O)NCCC=O; format: biochemical, Zea mays; conditions: 2.5 mM NAD+, 0.1 M sodium pyrophosphate, pH 8.1
[11] = substrate: O=CCCNC(=O)CC(=O)O; format: biochemical, Zea mays; conditions: 2.5 mM NAD+, 0.1 M sodium pyrophosphate, pH 8.1
[12] = substrate: N[C@@H](Cc1ccccc1)C(=O)NCCCC=O; format: biochemical, Zea mays; conditions: 2.5 mM NAD+, 0.1 M sodium pyrophosphate, pH 8.1
[13] = substrate: O=CCCCNC(=O)CC(=O)O; format: biochemical, Zea mays; conditions: 2.5 mM NAD+, 0.1 M sodium pyrophosphate, pH 8.1
[14] = substrate: N[C@@H](CCCC=O)C(=O)O; format: biochemical, Zea mays; conditions: 2.5 mM NAD+, 0.1 M sodium pyrophosphate, pH 8.1
[15] = substrate: N[C@@H](Cc1ccccc1)C(=O)NCCC=O; format: biochemical, Lathyrus oleraceus; conditions: 2.5 mM NAD+, 0.1 M sodium pyrophosphate, pH 8.1
[16] = substrate: N[C@@H](Cc1ccc(O)cc1)C(=O)NCCC=O; format: biochemical, Lathyrus oleraceus; conditions: 2.5 mM NAD+, 0.1 M sodium pyrophosphate, pH 8.1
[17] = substrate: O=CCCNC(=O)CC(=O)O; format: biochemical, Lathyrus oleraceus; conditions: 2.5 mM NAD+, 0.1 M sodium pyrophosphate, pH 8.1
[18] = substrate: O=CCCCNC(=O)CC(=O)O; format: biochemical, Lathyrus oleraceus; conditions: 2.5 mM NAD+, 0.1 M sodium pyrophosphate, pH 8.1
[19] = substrate: N[C@@H](CCCC=O)C(=O)O; format: biochemical, Lathyrus oleraceus; conditions: 2.5 mM NAD+, 0.1 M sodium pyrophosphate, pH 8.1
[20] = 1 mM NAD+, 0.15 M Tris-HCl, pH 9.0
[21] = 2.5 mM NAD+, 0.1 M sodium pyrophosphate, pH 8.1

B1: PsAMADH (native pea aminoaldehyde dehydrogenase, prevailing isoenzyme 1) (Lathyrus oleraceus) (protein)
chain: MAITVSSRQLFIDGEWRVPILNKRIPNINPSTENIIGDIPAATKEDVDLAVDAAKRAISRKNGRDWSAASGSLRARYLRAIAAKIKEKKDELGKLESIDCGKPLEEALADLDDVVACFEYYAGLAEELDSKQKAPISLPMDTFKSYILKEPIGVVALITPWNYPFLMATWKIAPALAAGCAAILKPSELASVTCLELGEICKEVGLPRGVLNIVTGLGHEAGASLASHPDVDKISFTGSSATGSKIMTTAAQLVKPVSLELGGKSPIVVFEDVDLDKVAEWTVFGCFFTNGQICSATSRLIVHESIAVEFVDKLVKWAENIKISDPLEEGCRLGPIVSEAQYKKVLNCISSAKSEGATILTGGRRPEHLKKGYFVEPTIITDVTTSMQIWREEVFGPVLAVKTFSTEEEAINLANDTHYGLGSAVMSNDLERCERLSKALQAGIVWINCAQPSFIQAPWGGIKRSGFGRELGEWGLENYLSVKQVTRYTSDEPWGWYQPPSKL
notes: native, purified from 7-day-old etiolated pea seedlings
[1]
  Km: 174 ± 42 µM
  kcat: 0.22 ± 0.04 s⁻¹
  kcat/Km: 1300 M⁻¹ s⁻¹
[2]; [20]
  Km: 101 ± 10 µM
  kcat: 0.17 s⁻¹
  kcat/Km: 1700 M⁻¹ s⁻¹
[3]
  Km: 103 ± 17 µM
  kcat: 1.34 ± 0.07 s⁻¹
  kcat/Km: 13000 M⁻¹ s⁻¹
[4]
  Km: 513 ± 36 µM
  kcat: 4.13 ± 0.2 s⁻¹
  kcat/Km: 8100 M⁻¹ s⁻¹
[5]
  Km: 506 ± 92 µM
  kcat: 1.29 ± 0.14 s⁻¹
  kcat/Km: 2500 M⁻¹ s⁻¹
[6]
  Km: 136 ± 11 µM
  kcat: 3.36 ± 0.2 s⁻¹
  kcat/Km: 24700 M⁻¹ s⁻¹
[7]
  Km: 427 ± 33 µM
  kcat: 1.49 ± 0.11 s⁻¹
  kcat/Km: 3500 M⁻¹ s⁻¹
[8]
  Km: 138 ± 6 µM
  kcat: 1.61 ± 0.07 s⁻¹
  kcat/Km: 11700 M⁻¹ s⁻¹

B2: ZmALDH7 (Zea mays) (protein)
chain: MGAFAKEEHQFLAELGLAQRNPGAFACGAWGGSGPTVTSTSPTNNQVIAEVVEASVHDYEEGMRACFDAAKTWMAIPAPKRGEIVRQIGDALRAKLHHLGRLVSLEMGKILPEGIGEVQEIIDMCDYAVGLSRQLNGSIIPSERPNHMMMEVWNPLGVVGVITAFNFPCAVLGWNACIALVCGNCVVWKGAPTTPLITIAMTKIVASVLEKNNLPGAIFTSFCGGTEIGQAIALDIRIPLVSFTGSTRAGLMVQQQVSARFGKCLLELSGNNAIIVMDDADIQLAVRSVLFAAVGTAGQRCTTCRRLILHENIYQTFLDQLVEVYKQVRIGDPLEKGTLLGPLHTPASKENFLKGIQTIKSQGGKILFGGSAIESEGNFVQPTIVEITPSAPVVKEELFGPVLYVMKFQSLKEAIEINNSVPQGLSSSIFTKRPDIIFKWLGPHGSDCGIVNVNIPTNGAEIGGAFGGEKATGGGREAGSDSWKQYMRRATCTINYGSELPLAQGINFG
notes: recombinant
[9]
  Km: 66 ± 12 µM
  kcat: 0.06 ± 0.01 s⁻¹
  kcat/Km: 910 M⁻¹ s⁻¹
[10]
  Km: 216 ± 56 µM
  kcat: 0.06 ± 0.01 s⁻¹
  kcat/Km: 280 M⁻¹ s⁻¹
[11]
  Km: 1997 ± 142 µM
  kcat: 0.15 ± 0.01 s⁻¹
  kcat/Km: 75 M⁻¹ s⁻¹
[12]
  Km: 457 ± 55 µM
  kcat: 0.02 s⁻¹
  kcat/Km: 44 M⁻¹ s⁻¹
[13]
  Km: 1493 ± 225 µM
  kcat: 0.18 ± 0.01 s⁻¹
  kcat/Km: 120 M⁻¹ s⁻¹
[14]
  Km: 191 ± 14 µM
  kcat: 0.77 ± 0.04 s⁻¹
  kcat/Km: 4000 M⁻¹ s⁻¹

B3: PsALDH7 (Lathyrus oleraceus) (protein)
chain: GSDSNNLGFLKEIGLGATNIGSFINGQWKANGPTVHSVNPSTNQVIASVTEATLDDYEEGLRASSEAAKTWRTVPAPKRGEIVRQIGDALRAKLDPLGRLVALEMGKILAEGIGEVQEIIDMCDYSVGLSRQLNGSIIPSERPEHMMFEVWNPLGIVGVITAFNFPCAVLGWNACIALVGGNTVVWKGAPTTPLITVAVTKLIAEVFERNNLPGAIFTALCGGADIGHAIAKDTRIPLVSFTGSSKVGALVQQTVSQRFGKTLLELSGNNAIIVMDDADITLAVRSIFFAAVGTAGQRCTTCRRLYLHESVYANVLEQLTALYKQVKIGNPLEEGTLVGPLHTRSAVENFKNGISAIKSQGGKIVTGGSVLESEGNFVVPTIVEISADAAVVKEELFAPVLYVMKFKDLEEAIALNNSVPQGLSSSIFTQKPSTIFKWIGPSGSDCGIVNVNIPTNGAEIGGAFGGEKATGGGREAGSDSWKQYMRRSTCTINYGSELPLAQGINFG
notes: recombinant
[15]
  Km: 74 ± 7 µM
  kcat: 0.07 s⁻¹
  kcat/Km: 950 M⁻¹ s⁻¹
[16]
  Km: 252 ± 45 µM
  kcat: 0.09 ± 0.01 s⁻¹
  kcat/Km: 360 M⁻¹ s⁻¹
[17]
  Km: 2522 ± 203 µM
  kcat: 0.19 ± 0.01 s⁻¹
  kcat/Km: 75 M⁻¹ s⁻¹
[2]; [21]
  Km: 656 ± 55 µM
  kcat: 0.04 s⁻¹
  kcat/Km: 61 M⁻¹ s⁻¹
[18]
  Km: 703 ± 72 µM
  kcat: 0.13 ± 0.01 s⁻¹
  kcat/Km: 180 M⁻¹ s⁻¹
[19]
  Km: 172 ± 32 µM
  kcat: 0.77 ± 0.09 s⁻¹
  kcat/Km: 4500 M⁻¹ s⁻¹

— PMC11362210, “N-carboxyacyl and N-α-aminoacyl derivatives of aminoaldehydes as shared substrates of plant aldehyde dehydrogenases 10 and 7” (Amino Acids, 2024)
